# Test results published in patent US20250152742A1, “COMPOSITIONS AND METHODS FOR NEUROLOGICAL DISEASES” (Trames Bio, Inc., priority 2022, published 2025).
# Tested on: engineered chimeric receptor SEQ ID NO: 33 and its mutants (human α7-nAChR ligand binding domain / human GlyRα1 ion pore domain) in Lenti-X 293T cells
# Assay: YFP fluorescence quenching anion reporter plate reader assay (percent quench, EC50)
# Format: cell-based
# Conditions: for YFP fluorescence quenching using CNL001 (percent quench): receptor named in row; for YFP fluorescence quenching using Facinicline, 30 nM fac: ligand Facinicline 30 nM; for YFP fluorescence quenching using Facinicline, 300 nM fac: ligand Facinicline 300 nM; for YFP fluorescence quenching using Facinicline, 30 uM fac: ligand Facinicline 30 uM; for YFP fluorescence quenching using TC-6987, 1 uM tc6987: ligand TC-6987 1 uM; for YFP fluorescence quenching using TC-6987, 10 uM tc6987: ligand TC-6987 10 uM; for YFP fluorescence quenching using TC-6987, 500 uM tc6987: ligand TC-6987 500 uM; for YFP fluorescence quenching using Varenicline, 3 nM var: ligand Varenicline 3 nM; for YFP fluorescence quenching using Varenicline, 30 nM var: ligand Varenicline 30 nM; for YFP fluorescence quenching using Varenicline, 300 nM var: ligand Varenicline 300 nM; for YFP fluorescence quenching using Varenicline, 500 nM var: ligand Varenicline 500 nM; for YFP fluorescence quenching using Varenicline, 1 uM var: ligand Varenicline 1 uM
# Source text: To screen these mutant LGICs for those having novel response profiles to ligands, an anion reporter assay was developed to assess the function of the LGICs in a high throughput format. In this assay, cells expressing a YFP reporter whose fluorescence is quenched in the presence of anion are transfected with DNA encoding the channel of interest. Upon exposure to ligand, channels that are activated will flux anion, resulting in a dose-dependent quench of the YFP that can be detected on a plate reader. The greater the quench signal (i.e., the more positive the value), the higher the ligand activity on the receptor is.
# Lenti-X 293T cells (LX293T, Clontech) were maintained in DMEM containing 10% FBS and 1% penicillin/streptomycin (Invitrogen). […] Two days before assay, cells were split at a density of 20,000 cells/well in a 96-well tissue culture plate coated with poly-d lysine (Thermo Scientific). The next day, the cells were transiently transfected with 0.1 μg of DNA per well using standard Fugene protocol (Promega). On the day of assay, cells were washed 2 times in 1X extracellular solution (1X ECS: 140 mM NaCl, 5 mM KCl, 1 mM MgCl2, 2 mM CaCl2, 10 mM HEPES, 10 mM glucose, pH 7.2, mOsms 300). After the last wash, 100 μL of 1X ECS was added to the wells and the plate was incubated at 37° C. for 30 min. While incubating the plate, the drugs were diluted to a 2X concentration in 1X ECS-Nal (same components as 1X ECS except the 140 mM NaCl was replaced by 140 mM Nal). The plates were then read on a Flexstation3 (Molecular Devices). Each well, 8 wells at a time, of the plate is read for 2 min using a Flexstation3 (Molecular Devices) as follows: 1) a baseline YFP fluorescence is read for 17 sec, 2) 100 μL of ligand is added, and 3) the changes in YFP fluorescence are then measured every 1.3 sec for 1 minute and 43 seconds. The percent quench is calculated from the average fluorescence of the last 10 seconds of the read divided by the baseline average of the first 15 seconds prior to the ligand addition.
# FIGS. 1A-1J provide heat maps of the percent quench of YFP fluorescence following stimulation by various doses of either acetylcholine or the non-native ligand as indicated in the Figures. CODA71 (SEQ ID NO: 33) was used as a control, and CODA75 (SEQ ID NO: 29, a non-responding chimeric engineered receptor) was used as the negative control. Quenching of the fluorescence signal, as indicated by blue shaded cells, indicate the level of engineered receptor activation by the non-native ligand at that concentration.
# [1] = 1 nM CNL001, first column so headed
# [2] = 1 nM CNL001, second column so headed
# [3] = 3 nM brd (TC-5619/Bradanicline)
# [4] = 10 nM CNL001, first column so headed
# [5] = 10 nM CNL001, second column so headed
# [6] = 30 nM brd (TC-5619/Bradanicline)
# [7] = 50 nM CNL001, first column so headed
# [8] = 50 nM CNL001, second column so headed
# [9] = 100 nM CNL001, first column so headed
# [10] = 100 nM CNL001, second column so headed
# [11] = 300 nM brd (TC-5619/Bradanicline)
# [12] = 1 uM CNL001, first column so headed
# [13] = 1 uM CNL001, second column so headed
molecule,measurement,setting,value
"CODA283: engineered receptor: Y115E_N379K in SEQ ID NO: 33 (protein, synthetic sequence of chimeric LGIC) MRCSPGGVWLALAASLLHVSLQGEFQRKLYKELVKNYNPLERPVANDSQPLTVYFSLSLLQIMDVDEKNQVLTTNIWLQMSWTDHYLQWNVSEYPGVKTVRFPDGQIWKPDILLENSADERFDATFHTNVLVNSSGHCQYLPPGIFKSSCPMDLKNFPMDVQTCKLKFGSWSYGGWSLDLQMQEADISGYIPNGEWDLVGIPGKRSERFYECCKEPYPDVTFTVTMRRRMGYYLIQMYIPSLLIVILSWISFWINMDAAPARVGLGITTVLTMTTQSSGSRASLPKVSYVKAIDIWMAVCLLFVFSALLEYAAVNFVSRQHKELLRFRRKRRHHKSPMLNLFQEDEAGEGRFNFSAYGMGPACLQAKDGISVKGANNSKTTNPPPAPSKSPEEMRKLFIQRAKKIDKISRIGFPMAFLIFNMFYWIIYKIVRREDVHNQ",YFP fluorescence quenching using CNL001 (percent quench),[1],−0.713%
same,YFP fluorescence quenching using CNL001 (percent quench),[2],−0.621%
same,YFP fluorescence quenching using TC-5619/Bradanicline (percent quench),1 nM brd (TC-5619/Bradanicline),0.59%
same,YFP fluorescence quenching using TC-5619/Bradanicline (percent quench),[3],−6.41%
same,YFP fluorescence quenching using CNL001 (percent quench),[4],7.739%
same,YFP fluorescence quenching using CNL001 (percent quench),[5],15.277%
same,YFP fluorescence quenching using TC-5619/Bradanicline (percent quench),10 nM brd (TC-5619/Bradanicline),−1.58%
same,YFP fluorescence quenching using TC-5619/Bradanicline (percent quench),[6],−14.24%
same,YFP fluorescence quenching using CNL001 (percent quench),[7],19.489%
same,YFP fluorescence quenching using CNL001 (percent quench),[8],33.703%
same,YFP fluorescence quenching using ABT-126 (percent quench),50 nM abt (ABT-126),−22.65%
same,YFP fluorescence quenching using CNL001 (percent quench),[9],56.886%
same,YFP fluorescence quenching using CNL001 (percent quench),[10],60.171%
same,YFP fluorescence quenching (percent quench),100 nM CNL002,−5.81%
same,YFP fluorescence quenching using ABT-126 (percent quench),100 nM abt (ABT-126),−20.55%
same,YFP fluorescence quenching using AZD-0328 (percent quench),100 nM azd0328,−2.1%
same,YFP fluorescence quenching using TC-5619/Bradanicline (percent quench),100 nM brd (TC-5619/Bradanicline),33.36%
same,YFP fluorescence quenching using ABT-126 (percent quench),300 nM abt (ABT-126),−12.93%
same,YFP fluorescence quenching using AZD-0328 (percent quench),300 nM azd0328,38.2%
same,YFP fluorescence quenching using TC-5619/Bradanicline (percent quench),[11],43.81%
same,YFP fluorescence quenching using CNL001 (percent quench),[12],69.836%
same,YFP fluorescence quenching using CNL001 (percent quench),[13],73.855%
same,YFP fluorescence quenching (percent quench),1 uM CNL002,9.69%
same,YFP fluorescence quenching using ABT-126 (percent quench),1 uM abt (ABT-126),1.71%
same,YFP fluorescence quenching using TC-5619/Bradanicline (percent quench),1 uM brd (TC-5619/Bradanicline),75.39%
same,YFP fluorescence quenching (percent quench),10 uM ach (acetylcholine),−6.16%
same,YFP fluorescence quenching (percent quench),30 uM CNL002,−12.85%
same,YFP fluorescence quenching using AZD-0328 (percent quench),30 uM azd0328,79.44%
same,YFP fluorescence quenching (percent quench),100 uM ach (acetylcholine),−11.12%
same,YFP fluorescence quenching (percent quench),1 mM ach (acetylcholine),−2.74%
same,YFP fluorescence quenching (percent quench),3 mM ach (acetylcholine),53.61%
same,"YFP fluorescence quenching using Facinicline, 30 nM fac",,6.39
same,"YFP fluorescence quenching using Facinicline, 300 nM fac",,78.36
same,"YFP fluorescence quenching using Facinicline, 10 uM fac",ligand Facinicline 10 uM,81.93
same,"YFP fluorescence quenching using Facinicline, 30 uM fac",,78.63
same,"YFP fluorescence quenching using TC-6987, 1 uM tc6987",,−9.54
same,"YFP fluorescence quenching using TC-6987, 10 uM tc6987",,−7.06
same,"YFP fluorescence quenching using TC-6987, 500 uM tc6987",,−15.15
"CODA325: engineered receptor: L131G in SEQ ID NO: 33 (protein, synthetic sequence of chimeric LGIC) MRCSPGGVWLALAASLLHVSLQGEFQRKLYKELVKNYNPLERPVANDSQPLTVYFSLSLLQIMDVDEKNQVLTTNIWLQMSWTDHYLQWNVSEYPGVKTVRFPDGQIWKPDILLYNSADERFDATFHTNVGVNSSGHCQYLPPGIFKSSCPMDLKNFPMDVQTCKLKFGSWSYGGWSLDLQMQEADISGYIPNGEWDLVGIPGKRSERFYECCKEPYPDVTFTVTMRRRMGYYLIQMYIPSLLIVILSWISFWINMDAAPARVGLGITTVLTMTTQSSGSRASLPKVSYVKAIDIWMAVCLLFVFSALLEYAAVNFVSRQHKELLRFRRKRRHHKSPMLNLFQEDEAGEGRFNFSAYGMGPACLQAKDGISVKGANNSNTTNPPPAPSKSPEEMRKLFIQRAKKIDKISRIGFPMAFLIFNMFYWIIYKIVRREDVHNQ",YFP fluorescence quenching using CNL001 (percent quench),[1],74.429%
same,YFP fluorescence quenching using CNL001 (percent quench),[2],78.715%
same,YFP fluorescence quenching using TC-5619/Bradanicline (percent quench),[3],68.45%
same,YFP fluorescence quenching using CNL001 (percent quench),[4],79.033%
same,YFP fluorescence quenching using CNL001 (percent quench),[5],79.322%
same,YFP fluorescence quenching using TC-6683 (percent quench),30 nM TC-6683,−21.27%
same,YFP fluorescence quenching using TC-5619/Bradanicline (percent quench),[6],76.95%
same,YFP fluorescence quenching using CNL001 (percent quench),[7],79.966%
same,YFP fluorescence quenching using CNL001 (percent quench),[8],80.091%
same,YFP fluorescence quenching using ABT-126 (percent quench),50 nM abt (ABT-126),−17.39%
same,YFP fluorescence quenching using CNL001 (percent quench),[9],81%
same,YFP fluorescence quenching using CNL001 (percent quench),[10],79.701%
same,YFP fluorescence quenching (percent quench),100 nM CNL002,45.62%
same,YFP fluorescence quenching using ABT-126 (percent quench),100 nM abt (ABT-126),6.89%
same,YFP fluorescence quenching using AZD-0328 (percent quench),100 nM azd0328,79.75%
same,YFP fluorescence quenching using TC-6683 (percent quench),300 nM TC-6683,−18.33%
same,YFP fluorescence quenching using ABT-126 (percent quench),300 nM abt (ABT-126),38.65%
same,YFP fluorescence quenching using AZD-0328 (percent quench),300 nM azd0328,80.62%
same,YFP fluorescence quenching using TC-5619/Bradanicline (percent quench),[11],77.1%
same,YFP fluorescence quenching using CNL001 (percent quench),[12],79.289%
same,YFP fluorescence quenching using CNL001 (percent quench),[13],80.581%
same,YFP fluorescence quenching (percent quench),1 uM CNL002,74.72%
same,YFP fluorescence quenching using ABT-126 (percent quench),1 uM abt (ABT-126),45.82%
same,YFP fluorescence quenching using TC-6683 (percent quench),3 uM TC-6683,−7.03%
same,YFP fluorescence quenching (percent quench),10 uM ach (acetylcholine),5.66%
same,YFP fluorescence quenching (percent quench),30 uM CNL002,77.4%
same,YFP fluorescence quenching using TC-6683 (percent quench),30 uM TC-6683,56.84%
same,YFP fluorescence quenching using AZD-0328 (percent quench),30 uM azd0328,80.19%
same,YFP fluorescence quenching using TC-6683 (percent quench),100 uM TC-6683,64.51%
same,YFP fluorescence quenching (percent quench),100 uM ach (acetylcholine),74.07%
same,YFP fluorescence quenching (percent quench),1 mM ach (acetylcholine),62.65%
same,YFP fluorescence quenching (percent quench),3 mM ach (acetylcholine),69.49%
same,"YFP fluorescence quenching using Facinicline, 30 nM fac",,75.75
same,"YFP fluorescence quenching using Facinicline, 300 nM fac",,78.01
same,"YFP fluorescence quenching using Facinicline, 30 uM fac",,76.61
same,"YFP fluorescence quenching using TC-6987, 1 uM tc6987",,64.59
same,"YFP fluorescence quenching using TC-6987, 10 uM tc6987",,76.28
same,"YFP fluorescence quenching using TC-6987, 500 uM tc6987",,70.95
same,"YFP fluorescence quenching using Varenicline, 3 nM var",first column,−12.241
same,"YFP fluorescence quenching using Varenicline, 3 nM var",second column,−9.415
same,"YFP fluorescence quenching using Varenicline, 30 nM var",first column,75.334
same,"YFP fluorescence quenching using Varenicline, 30 nM var",second column,72.278
same,"YFP fluorescence quenching using Varenicline, 300 nM var",first column,78.305
same,"YFP fluorescence quenching using Varenicline, 300 nM var",second column,77.83
same,"YFP fluorescence quenching using Varenicline, 500 nM var",first column,75.936
same,"YFP fluorescence quenching using Varenicline, 500 nM var",second column,76.788
same,"YFP fluorescence quenching using Varenicline, 1 uM var",first column,77.805
same,"YFP fluorescence quenching using Varenicline, 1 uM var",second column,77.352
